Here are results for two molecules from patent US20260085122A1.

In this assay the target is native B7H3 on cells (UniProt Q5ZPR3). The experiment in a line: flow cytometry on cells with native B7H3 (taken as H358), anti-His-tag iFluor 488 detection.

In general, EC50 refers to the concentration needed to bring the measured effect to its halfway point.

Sequence of native B7H3 on cells (Q5ZPR3 29-534): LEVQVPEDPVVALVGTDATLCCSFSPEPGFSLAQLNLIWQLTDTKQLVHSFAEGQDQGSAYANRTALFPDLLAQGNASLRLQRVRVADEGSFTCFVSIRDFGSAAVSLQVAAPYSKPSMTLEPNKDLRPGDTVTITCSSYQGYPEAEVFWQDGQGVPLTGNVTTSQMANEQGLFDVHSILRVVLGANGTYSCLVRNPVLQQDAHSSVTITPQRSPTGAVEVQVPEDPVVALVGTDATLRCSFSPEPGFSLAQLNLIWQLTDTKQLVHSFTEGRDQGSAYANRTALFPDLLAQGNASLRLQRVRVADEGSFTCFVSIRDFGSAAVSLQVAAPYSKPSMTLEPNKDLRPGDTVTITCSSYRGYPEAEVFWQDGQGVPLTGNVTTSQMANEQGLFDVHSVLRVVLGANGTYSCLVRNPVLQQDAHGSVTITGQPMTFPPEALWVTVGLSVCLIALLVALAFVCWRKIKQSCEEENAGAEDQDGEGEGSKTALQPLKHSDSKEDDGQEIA

B1: VHH1_C002 (VHH)
VHH: EVQLLESGGGLVQPGGSLRLSCAASGFTFSDYHMSWVRQAPGKGLEWVSGILNTGLSPTYAATVTGRFTISRDNSKNTLYLQMNSLRAEDTAVYYCAQGYYRATPSQANRGQGTLVTVSS
Regarding B1, the 50% effective concentration (EC50) amounted to 77 nM and the MFI is 539000.

B2: VHH1_C001 (VHH)
VHH: EVQLVESGGGLVQPGGSLRLSCAASPRTFQTYFMGWFRQAPGKELEWVSVINWSGGTSYYKDSVKGRFTISRDNSKNTLYLQMNSLRAEDTAVYYCAAKGSGTYDREGEYDYWGQGTLVTVSS
Regarding B2, the half-maximal effective concentration (EC50) was found to be 6.29 nM and the MFI came out at 496000.
